Patent US20220356237A1 (UNIVERSITY OF MIAMI, published 2022)

Columns and labels:
[1] = biological target: T1, human secretogranin III (Scg3) (human, UniProt Q8WXD2 20-468, limits assumed); assay: method not given; protein pulldown with protein G beads at 5 ug/ml each is described in paragraph 100
T1 construct: also called human Scg3; 1B1075
Experimental: Protein pulldown. Scg3 (5 μg/ml) was incubated with aflibercept, VEGFR-Fc or VEGFR2-Fc (5 μg/ml) in PBS solution containing 0.5% Triton X-100 and BSA (1 mg/ml) for 1 h at 4° C. Protein G beads (20 μl) were added and incubated at 4° C. for 30 min with end-over-end rotation. The beads were washed three times with PBS by centrifugation, eluted with low pH buffer (100 mM glycine, pH 2.7) and analyzed by Western blot using anti-Scg3 pAb.

[2] = biological target: T1, human secretogranin III (Scg3); assay: competition ELISA (excess mAb against Clone 78 scFv) and Octet RED96
Experimental: (§1) Competitive binding to Scg3 was evaluated for Clone 49 and the other anti-Scg3 mAbs described in Table 1. Anti-Scg3 scFv Clone 49 (FIG. 3D) and Clone 78 (FIG. 3E) were expressed and purified. […] Bound scFv was detected by ELISA assay. Binding assays were also performed using an Octet RED96 system (Pall ForteBio), as described in Estep et al., MAbs 2013; 5:270-278.

[3] = biological target: T1, human secretogranin III (Scg3); assay: ELISA on immobilised Scg3 and Octet RED96
Experimental: as §1

T1 sequence (Q8WXD2 20-468 limits assumed): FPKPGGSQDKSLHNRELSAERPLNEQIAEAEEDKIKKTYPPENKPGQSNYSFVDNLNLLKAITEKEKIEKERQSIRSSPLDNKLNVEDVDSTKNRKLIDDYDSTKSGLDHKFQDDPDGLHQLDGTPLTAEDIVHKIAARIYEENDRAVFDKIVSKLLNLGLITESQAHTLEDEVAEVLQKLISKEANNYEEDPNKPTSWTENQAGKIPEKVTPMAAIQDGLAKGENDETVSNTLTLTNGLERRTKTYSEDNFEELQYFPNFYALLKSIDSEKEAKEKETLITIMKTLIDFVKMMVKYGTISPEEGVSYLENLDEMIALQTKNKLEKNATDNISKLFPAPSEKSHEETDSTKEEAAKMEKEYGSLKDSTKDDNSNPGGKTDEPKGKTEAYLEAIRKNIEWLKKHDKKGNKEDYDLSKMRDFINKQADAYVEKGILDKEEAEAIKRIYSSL

Row | binding result [2] | binding result [3] | Binder | also measured
1 |  |  | aflibercept (Fc fusion, UniProt P17948 129-230, looked up, also called EYLEA; not shown: human IgG Fc) SDTGRPFVEMYSEIPEIIHMTEGRELVIPCRVTSPNITVTLKKFPLDTLIPDGKRIIWDSRKGFIISNATYKEIGLLTCEATVNGHLYKTNYLTHRQTNTIIDVVLSPSHGIELSVGEKLVLNCTARTELNVGIDFNWEYPSSKHQHKKLVNRDLKTQSGSEMKKFLSTLTIDGVTRSDQGLYTCAASSGLMTKKNSTFVRVHEK | binding result [1]: no binding
2 | binds |  | anti-Scg3 mAb Clone 153 (antibody, V domains shown, Monoclonal antibody) VH: GRKLQESGPELLKPGASVKISCKTSGYIFSTSWMNWVKQRPGQGLEWIGRIYPGDGHTNYNGKFKDKATLTADKSSSTAYMQLSSLTSVDSAVYFCARSADGYFFVYWGQGTLVTVSA VL: DIVLTQTPLSLPVSLGDQASISCRSSQSIVHSNGNTYLEWYLQKPGQSPKLLIFKVSKRFSGVPDRFSGSGSGTDFTLKISRVEAEDLGVYHCFQGSHVPPTFGGGTKLEIKR | 
3 | binds |  | anti-Scg3 mAb Clone 190 (antibody, V domains shown, Monoclonal antibody; also called CLONE 190 Monoclonal Antibody) VH: EVKLEESGPELLKPGASVKISCKTSGYIFSSSWMNWVKQRPGQGLEWIGRIYPGDGHTNYNGKFKDKATLTADKSSSTAYMQLSSLTSVDSAVYFCARSADGYFFVYWGQGTPVTVSA VL: DIVMTQSPLSLPVSLGDQASISCRSSQSIVHSNGNTYLEWYLQKPGQSPKLLIFKVSKRFSGVPDRFSGSGSGTDFTLKISRVGAEDLGIYYCFQGSHVPPTFGGGTKLEIKR | 
4 | binds |  | anti-Scg3 mAb Clone 162 (antibody, V domains shown, Monoclonal antibody) VH: PGKAEESGPEMLKPGASVKISCKTSGYIFSTSWMNWVKQRPGQGLEWIGRIYPGDGHTNYNGKFKDKATLTADKSSSTAYMQLSSLTSADSAVYFCARSADGYFFVYWGQGTLVTVSA VL: DIVLTQTPLSLPVSLGDQASISCRSSQNIIHSNGNTYLEWYLQKPGQSPKLLIFKVSKRFSGVPDRFSGSGSGTDFTLKISRVEAEDLGVYHCFQGSHVPPTFGGGTKLEIKR | 
5 |  | binds | anti-Scg3 mAb Clone 78 (antibody, V domains shown, also called Clone 78 mAb; CLONE 78 Monoclonal Antibody) VH: EVQLQQSGPELLKPGASVKISCKTSGYIFSASWMNWVKQRPGQGLEWIGRIYPGDGHTNYNGKIKDKATLTADKSSSTAYMQLSSLTSVDSAVYFCARSADGYFFVDWGQGTLVTVSA VL: DIVMTQTPVSLPVSLGDQASISCRSSQSIVHSNGNTYLEWYLQKPGQSPKLLIFKVSKRFYGVPDRFSGSGSGTDFTLKISRVEAEDLGVYHCFQGSHVPPTFGGGTKLEIKR | 
6 |  | binds | anti-Scg3 mAb Clone 49 (antibody, V domains shown, also called Clone 49 mAb; CLONE 49 Monoclonal Antibody) VH: EVKLEESGAELVKPGASVKLSCTASGFNIKDTYMHWVKQRPEQGLEWIGRIDPANGDTKYDPKFQGKATITADTSSNTAYLQLSSLTSEDTAVYYCARNGPGTPWFAYWGQGTLVTVSA VL: DIQMTQSSSYLSVSLGGRVTITCKASDHINNWLTWYQQKPGNAPRLLISGATSLETGVPSRFSGSGSGKDYTLSITSLQTEDVATYYCQQYWSTPFTFGSGTKLEIKR | 
